What was measured:
[1] = biological target: hLDLR-K809R\C818A (human) (UniProt P01130); experiment: cell-based or functional assay
[2] = biological target: wild type human low density lipoprotein receptor (hLDLR), isoform 1 (human) (UniProt P01130); experiment: cell-based or functional assay

- percent LDL positive HEK293 cells, hLDLR-K809R\C818A co-transfected with hIDOL [1]: 14 % of cells
- percent LDL positive HEK293 cells, hLDLR co-transfected with hIDOL [2]: 2 % of cells
Substance: human inducible degrader of LDLR (hIDOL) (from UniProt Q8WY64 1-445)
